Series [1] has as its target T1, human serum albumin (HSA) (Homo sapiens, UniProt P02768).
T1 construct: purchased Sovicell GmbH, Leipzig, Germany
The experiment in a line: Plasma protein binding, TRANSIL XL kit, HSA. Type of series: in vitro ADME. As to conditions: 5 μM D3 (with 3H-D3) in PBS, LSC of supernatant, above detection limit of the kit, n = 2. How it is done:
Plasma protein binding was estimated by incubation of D3 with varying concentrations of protein using TRANSIL^XL binding kits (Sovicell GmbH, Leipzig, Germany). KD values were determined by titrating a constant drug concentration against different concentrations of human serum albumin (HSA) and α1-acid glycoprotein (AGP). Experiments were performed as recommended for the kit. To obtain the desired D3 stock solution of 80 μM, non-radioactively labelled D3 was dissolved in PBS and 5% ^3H-labelled D3 solution was added for detection purposes. A final concentration of 5 μM D3 was applied in the assay. After incubation and centrifugation 15 μl supernatant were taken and scintillation cocktail was added. This was done in triplicate. Radioactivity was then quantified using liquid scintillation counting. After measuring the disintegrations per minute (dpm) of the supernatant containing the unbound peptide, the D3 fraction bound to the titrated protein was calculated and plotted against the protein concentrations. […]
For bioavailability determination, the unbound fraction of D3 (fu) was calculated using the equation below: fu=100*CD3−KD−Cphysiol/2+KD*CD3+(CD3−KD−Cphysiol/2)^2/CD3 (1) For very low D3 concentrations in blood (CD3), Eq (1) can be simplified by Eq (2), where the unbound fraction of D3 can be calculated independently of the applied D3 concentration. […]

Series [2] is described as follows: Proteolytic stability in mouse plasma (TLC, autoradiography). Type of series: in vitro ADME. As to conditions: freshly prepared mouse plasma, 37°C, 1 μCi (approx. 0.08–0.8 μg) peptide with 1 μl plasma, D3 up to 2 days, L-form 0 and 60 min, 3H-autoradiography. As to the method: In order to study the proteolytic stability of peptides in biological extracts, tritium labelled peptides were incubated with liver microsomes (pooled from mouse (CD-1), Sigma-Aldrich), freshly prepared mouse plasma or extracts of brain, liver and kidney at 37°C for different time periods (from 0 min to 2 days). 1 μCi (approx. 0.08–0.8 μg) radioactive labelled peptide was mixed with 1 μl microsomes stock solution, plasma or organ extracts, respectively (in great excess to peptide). Mixtures containing tritium-labelled peptides were applied onto HPTLC Silica Gel 60 plates (OMNILAB, Essen, Germany) for thin layer chromatography (TLC) with a mobile solvent (2-Butanol/Pyridine/Ammonia(28%)/Water(39/34/10/26)). After development, a phosphor imaging plate for ^3H-autoradiography (FUJIFILM, Tokyo, Japan) was exposed to the TLC plates for 3 days. Images were acquired with a BAS reader and AIDA software (Raytest, Freiburg, Germany). Retardation factor (Rf) of each substance was defined as the ratio of the migration distance of the centre of a separated spot to the migration distance of the solvent front.

“Also recorded” adds a separate entry of the source. Where only a bound is given, the exact number is not on record here.

Turning to “D3: fully D-enantiomeric peptide identified by mirror-image phage display for binding to Aβ (1–42) (RPRTRLHTHRNR; all residues are D-amino acids (rprtrlhthrnr); tracer form carries 4,5-3H-D-Leu at position 6)”, the Kd (as a rule, the free concentration of one partner at which half of the binding sites on the other are occupied at equilibrium, for simple one-to-one binding) in series [1] was greater than 1400 µM.

For the substance “RPRTR-(4,5-^3H-Leu)-HTHRNR [3H-(L)-D3, tritium labelled L-form enantiomer of D3, RPRTR-(4,5-3H-Leu)-HTHRNR]”, the “proteolytic degradation in plasma” value in series [2] is “significant degradation already after 60 min; also recorded: Obvious proteolytic degradation”.

These data come from PMC4457900, “Preclinical Pharmacokinetic Studies of the Tritium Labelled D-Enantiomeric Peptide D3 Developed for the Treatment of Alzheimer´s Disease” (PLoS ONE, 2015).
